Results taken from PMC6938514.

What was measured:
[1] = target: MBPeng-KFL_(PYK2) (Escherichia coli | not stated) (UniProt Q14289); assay: SEC-SAXS; SWING beamline; 20 mM HEPES, 150 mM NaCl, 2 mM DTT, 2 mM maltose; dimer and monomer peaks fitted with models from the crystal structures
[2] = target: MBPeng-KFL_(PYK2) (Escherichia coli | not stated) (UniProt Q14289); assay: SEC; large-scale Superdex 200 after the amylose column; protein applied at 15 mg/ml; 20 mM HEPES pH 7.5, 150 mM NaCl, 2 mM maltose, 2 mM DTT
[3] = target: MBPeng-KFL_(PYK2) (Escherichia coli | not stated) (UniProt Q14289); assay: crystal structure; dimeric SEC fractions crystallised by hanging drop at 23 °C, 15 mg/ml, pH 10.5; space group P1
[4] = target: MBPeng-KFLFAK (Escherichia coli | not stated); assay: SEC; central fractions of the monomeric or dimeric peak incubated for one week at 37 °C, then analytical SEC

Row | Substance | stoichiometry N [1] | stoichiometry N [2] | stoichiometry N [3] | percent of the dimeric fraction converted into monomers after one week at 37 °C [4] [%] | percent of the monomeric fraction converted into dimers after one week at 37 °C [4] [%]
1 | MBPeng-KFL_(PYK2) (from UniProt Q14289 790-839) | 2 | 2 | 2 | – | –
2 | MBPeng-KFLFAK (from UniProt Q05397 805-832) | – | – | – | 20 | 20
